We go through 167 variants from the RNAGym collection of RNA variant scans (doi:10.7554/elife.80360).

B1: CPEB3 Ribozyme (parent)
chain: GGGGGCCACAGCAGAAGCGUUCACGUCGCGGCCCCUGUCAGAUUCUGGUGAAUCUGCGAAUUCUGCUGU

The series covers variants of B1. Put plainly: self-cleavage, relative activity (ratio to wild type); higher = more cleavage; co-transcriptional.
In the case of G4A U49G, the self-cleavage turned out to be 0.728.
As to G4A U49C, the self-cleavage is 0.916.
For G4A A15U the value was 0.455; for G4A A15G, 0.93.
As to G4A A15C, the self-cleavage was found to be 0.329.
The value for G4A G17A was 0.175; that for G4A G17C was 0.0965.
Consider G3U A15U, for which the self-cleavage was 0.0782.
For G3U A15C, the self-cleavage stood at 0.0817.
For G3U A15G the value was 0.141.
Turning to G4C C6A, the self-cleavage was 0.0438.
The value for G4C C6G was 0.0309.
For G4A C9G the value was 1.05.
Turning to G4A C9U, the self-cleavage worked out at 0.953.
For G4A C9A the value was 1.03; for G3U C45U, 0.162.
For G3U G65A the value was 0.171.
The value for G3U G65C was 0.0613; that for G4A G14C was 0.305; that for G4A G14U was 0.519.
Regarding G4C C32U, the self-cleavage was 0.198.
The value for G3U G17U was 0.0304.
For G3U G17C the value was 0.0675; for G4A C66A, 0.743.
In the case of G4A C66U, the self-cleavage was found to be 0.852.
For G4C A16G the value was 0.122; for G3U G25C, 0.0349; for G3U G30C, 0.0267.
As for G3U G30A, the self-cleavage was found to be 0.0662.
Turning to G3U G30U, the self-cleavage is 0.0357.
For G4A C18A the value was 0.147.
G4A C18U: the self-cleavage came to 0.481.
As to G4A C18G, the self-cleavage turned out to be 0.158.
The value for G4A G56U was 0.744.
As for G4A G56C, the self-cleavage was 0.456.
On to G4C A15G, for which the self-cleavage was determined as 0.496.
In the case of G4C A15C, the self-cleavage came out at 0.145.
Turning to G3C U64C, the self-cleavage is 0.0655.
As to G3U U36C, the self-cleavage came to 0.122.
The value for G3U U36G was 0.135; that for G4A G28U was 0.127.
The value for G4A G28C was 0.162; that for G4C C18G was 0.0437.
The value for G4C C18A was 0.0472; that for G4C C18U was 0.129.
As for G4A A42G, the self-cleavage came to 0.806.
With G4A A42C, the self-cleavage was determined as 0.473.
For G4A A51U the value was 0.804; for G4A G58U, 0.9; for G4A G58A, 0.683.
For G4A A16U the value was 0.459.
As to G4A A16G, the self-cleavage was 0.737.
The value for G3U C24G was 0.0481; that for G3U C24A was 0.0286; that for G3U C24U was 0.0674.
For G4C G11C the value was 0.273; for G4C G11A, 0.375.
The value for G4C G11U was 0.262; that for G4A G31U was 0.159.
Consider G4A G31C, for which the self-cleavage is 0.148.
G4C A42C: the self-cleavage worked out at 0.237.
Consider G4C A42U, for which the self-cleavage came to 0.354.
As for G3U A60G, the self-cleavage was 0.0646.
For G3U A60C the value was 0.0666.
Consider G3U A60U, for which the self-cleavage amounted to 0.0237.
Consider G3U C6U, for which the self-cleavage is 0.0423.
For G3U C6G the value was 0.0291; for G4A U44C, 0.679; for G4A U44A, 0.646.
For G4A U44G the value was 0.558; for G4A U36G, 0.424.
For G4A U36C the value was 0.792.
In the case of G4C C12U, the self-cleavage was found to be 0.608.
G4C C12G: the self-cleavage was found to be 0.148.
The value for G4C C12A was 0.166; that for G3U C7A was 0.0696; that for G3U C7U was 0.0677.
For G4C C9A, the self-cleavage turned out to be 0.905.
The value for G4C C9G was 0.899; that for G4C C9U was 0.937; that for G4C C27U was 0.0743.
G4A G19U: the self-cleavage is 0.178.
Regarding G4A G19C, the self-cleavage worked out at 0.11.
For G3U U44A the value was 0.0987.
For G3U U44G the value was 0.115; for G3U U44C, 0.127.
For G3U C39A the value was 0.0589.
Take G3U C39U: the self-cleavage stood at 0.043.
The value for G3U C39G was 0.0714; that for G3U G50C was 0.145.
On to G4A G30U, for which the self-cleavage turned out to be 0.0939.
For G4A G30A the value was 0.294.
The value for G4A G30C was 0.188; that for G4C A59U was 0.203.
The value for G4C A59G was 0.37.
For the variant G4A C32A, the self-cleavage stood at 0.216.
For G4A U38G the value was 0.107; for G4A U38A, 0.761.
The value for G3U C33A was 0.102; that for G3U C33U was 0.0906.
For G4C C7U the value was 0.129.
In the case of G4C C7A, the self-cleavage came to 0.0992.
With G3U C63U, the self-cleavage turned out to be 0.114.
Consider G4C C57A, for which the self-cleavage came to 0.136.
For G3U G48A the value was 0.245; for G4C A13G, 0.472; for G4C A13U, 0.302.
Take G3U G56C: the self-cleavage was 0.0723.
As for G3U G56U, the self-cleavage is 0.109.
The value for G3U A10C was 0.332; that for G3U A10U was 0.424; that for G4A C57A was 0.245.
For G4A C57U the value was 0.223.
As to G4A C57G, the self-cleavage was 0.217.
As to G4A A13U, the self-cleavage stood at 0.66.
The value for G4A A13C was 0.588; that for G3U C9G was 0.446; that for G4C C22A was 0.0918.
In the case of G4C C63A, the self-cleavage came out at 0.217.
For G4C C63U the value was 0.584; for G4C C34G, 0.0856.
On to G3U U38C, for which the self-cleavage was 0.0341.
Regarding G3U U38G, the self-cleavage came out at 0.0509.
For G3U G19A the value was 0.0413; for G3U G19U, 0.0853; for G3U G58C, 0.0675.
For G3U G58A the value was 0.0734; for G3U U64A, 0.128; for G3U U64C, 0.132.
For G3U U64G the value was 0.138; for G4C A40U, 0.228; for G4C A40C, 0.202.
G4C A40G: the self-cleavage was 0.526.
For G3U A16U the value was 0.0502.
For G3U A16C the value was 0.0591; for G3U A16G, 0.0682.
The value for G4A C7A was 0.0893.
Turning to G4A C7U, the self-cleavage came out at 0.458.
For G3U C57A the value was 0.0577; for G3U C57U, 0.0383; for G4A G48A, 0.92.
For G3U U49A the value was 0.201.
The value for G3U U49C was 0.176.
As to G3U C35A, the self-cleavage was 0.0237.
On to G3U C35G, for which the self-cleavage came to 0.0418.
Turning to G4A C12G, the self-cleavage came out at 0.5.
For G4A C12A the value was 0.477; for G4A G5C, 0.113; for G4A G5A, 0.103.
For G4A U55G the value was 0.52; for G3U U21G, 0.0385.
Take G3U U21A: the self-cleavage worked out at 0.157.
Regarding G3U U21C, the self-cleavage is 0.0376.
The value for G3U U62G was 0.108; that for G3U U62A was 0.0711.
For G4A U20A the value was 0.23; for G4A U20G, 0.0767; for G4A G37C, 0.149.
As to G4A G37A, the self-cleavage turned out to be 0.179.
G4A G37U: the self-cleavage was 0.154.
Turning to G4A G11U, the self-cleavage turned out to be 0.629.
Turning to G4A G11C, the self-cleavage worked out at 0.631.
Regarding G4A G11A, the self-cleavage was 0.672.
Consider G4A C33G, for which the self-cleavage was found to be 0.68.
The value for G3U A23G was 0.0915; that for G4A A59U was 0.283.
The value for G4A A59C was 0.32.
